Source: patent US20250074943A1 (Amgen, published 2025)
One block for each binder: values may come before it. Numbered stars: 1 amine (or outer) side, 2 acyl side, 3 side chain; on linkers, the order of the positions; unused ones are H or OH. Bridge positions count the residues as written; N and C are the ends. Ends that are not written are not given here. Ttds = non-peptide spacer, O=C(CCC(=O)[*:2])NCCCOCCOCCOCCCN[*:1]

Tests used:
[1] = target: T1, recombinant DLL3 ectodomain (rhDLL3-Fc) (human, UniProt Q9NYJ7 27-492, biotinylated (NHS-LC-LC-biotin) in the BLI and SPR assays); assay: kinetic assay, method not told for this table (BLI, SPR or flow cytometry)
T1 construct: also called rDLL3-Fc; recombinant human DLL3 (rDLL3); not shown: Fc part
T1 sequence: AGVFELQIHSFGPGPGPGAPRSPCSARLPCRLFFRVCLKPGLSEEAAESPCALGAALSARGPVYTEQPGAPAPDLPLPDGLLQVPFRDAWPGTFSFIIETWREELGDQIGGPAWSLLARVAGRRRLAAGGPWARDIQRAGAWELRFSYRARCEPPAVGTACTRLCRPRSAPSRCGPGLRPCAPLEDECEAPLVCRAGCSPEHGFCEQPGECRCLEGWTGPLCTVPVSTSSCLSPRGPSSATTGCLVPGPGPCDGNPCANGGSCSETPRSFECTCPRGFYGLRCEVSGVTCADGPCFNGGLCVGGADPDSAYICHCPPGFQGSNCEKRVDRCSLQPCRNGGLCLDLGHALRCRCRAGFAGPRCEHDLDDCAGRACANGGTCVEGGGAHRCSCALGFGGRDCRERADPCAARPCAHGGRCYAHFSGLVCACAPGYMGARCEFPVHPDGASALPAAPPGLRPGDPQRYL

[2] = target: T2, human FLT3 expressed on CHO cells (human, UniProt P36888 27-993); assay: flow cytometry, biotin-labelled PepSP1462 detected with anti-streptavidin-AF488 antibody
T2 construct: whole, on cells; Negative control cell line; also called CHO huFLT3; CHO huFTL3
Description: (§2) Peptide PepSP1462, identified herein was biotin labeled. The biotin labeled peptide was detected using an anti-streptavidin antibody conjugated to AF488. The AF488-labeled peptide was detected directly.
(§3) Binding specificity of the labeled peptide for DLL3 was assessed using DLL3-negative cell lines. […] Cells were then washed twice with FACS buffer and incubated with an anti-streptavidin antibody conjugated to AF488 (Thermo Fisher). […] Cells were then washed twice with FACS buffer an resuspended in FACS buffer that contained 0.5 μg/ml propidium iodide. Cells were analyzed by flow cytometry, using an LSR Fortessa and FACSDiva software (Becton Dickinson) or Flow Jo (Flow Jo LLC).

[3] = target: T3, rat DLL3 expressed on CHO cells (rat, UniProt O88671 33-589); assay: flow cytometry, 100 µM biotin-labelled PepSP1462 detected with anti-streptavidin-AF488 antibody; CHO huFLT3 as negative control cell line
T3 construct: whole, on cells; also called CHO rtDLL3; High CHO rtDLL3
T3 sequence (looked up): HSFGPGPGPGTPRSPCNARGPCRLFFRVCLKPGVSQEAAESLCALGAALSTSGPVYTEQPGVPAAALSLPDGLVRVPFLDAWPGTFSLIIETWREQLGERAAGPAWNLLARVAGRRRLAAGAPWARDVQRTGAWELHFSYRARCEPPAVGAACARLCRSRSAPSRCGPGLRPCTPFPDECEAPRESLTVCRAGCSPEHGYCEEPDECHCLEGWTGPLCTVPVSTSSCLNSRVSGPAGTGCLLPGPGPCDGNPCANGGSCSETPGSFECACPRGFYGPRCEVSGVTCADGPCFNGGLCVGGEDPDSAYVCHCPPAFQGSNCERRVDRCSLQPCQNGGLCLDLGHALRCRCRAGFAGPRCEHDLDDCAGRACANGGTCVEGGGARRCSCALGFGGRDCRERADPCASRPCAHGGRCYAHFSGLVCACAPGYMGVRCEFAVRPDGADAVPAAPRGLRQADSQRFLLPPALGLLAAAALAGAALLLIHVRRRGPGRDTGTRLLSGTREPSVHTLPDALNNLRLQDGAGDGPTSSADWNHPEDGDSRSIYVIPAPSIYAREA
Description: as §2, §3

[4] = target: T4, mouse DLL3 expressed on CHO cells (mouse, UniProt O88516 33-592); assay: as above
T4 construct: whole, on cells; also called CHO muDLL3
T4 sequence (looked up): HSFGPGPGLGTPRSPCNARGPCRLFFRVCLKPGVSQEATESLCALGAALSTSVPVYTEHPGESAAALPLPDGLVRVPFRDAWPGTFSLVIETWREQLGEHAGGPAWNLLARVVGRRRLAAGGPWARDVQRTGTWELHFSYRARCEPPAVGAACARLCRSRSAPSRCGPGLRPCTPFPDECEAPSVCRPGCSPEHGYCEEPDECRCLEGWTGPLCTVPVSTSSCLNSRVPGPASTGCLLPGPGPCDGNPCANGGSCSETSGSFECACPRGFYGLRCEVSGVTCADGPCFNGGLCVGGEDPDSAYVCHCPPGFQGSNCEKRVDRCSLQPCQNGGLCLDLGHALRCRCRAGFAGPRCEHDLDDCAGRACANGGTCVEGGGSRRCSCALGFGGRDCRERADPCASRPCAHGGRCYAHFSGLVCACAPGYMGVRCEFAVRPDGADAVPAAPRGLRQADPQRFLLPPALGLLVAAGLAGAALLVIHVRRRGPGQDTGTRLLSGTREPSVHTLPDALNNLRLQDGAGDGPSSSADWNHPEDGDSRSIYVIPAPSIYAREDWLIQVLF
Description: as §2, §3

[5] = target: T1, recombinant DLL3 ectodomain (rhDLL3-Fc); assay: BLI (Octet), biotinylated rhDLL3-Fc on streptavidin sensors; second listing of 1161 in Table 4, rounded
Description: (§1) Binding kinetic assays were performed using Bio-layer interferometry (BLI) technology. The recombinant DLL3 ectodomain (rhDLL3-Fc) was biotinylated using EZ-Link Sulfo-NHS-LC-LC-Biotin Kit according to the manufacturer's protocol (Pierce by Thermo Fisher Scientific). The recombinant protein was incubated with an excess of NHS-LC-LC Biotin ester, in a molar ratio of 1:3 (protein: biotin), at 25° C. for 90 min. The un-reacted biotin ester was removed by subsequent buffer exchange on 0.5 ml Zeba spin desalting columns 7K MWCO (Pierce by Thermo Fisher Scientific).

[6] = target: T1, recombinant DLL3 ectodomain (rhDLL3-Fc); assay: BLI (Octet), biotinylated rhDLL3-Fc on streptavidin sensors
Description: as §1

- RT [1]: 189
Binder: Ac-AETVEFWWCNGNSENWTCTWGG-{Ttds-Lys-NH2} (disulfide 9-18 (inferred)) [PepSP1324]

- binding result [2]: no binding (tested: 100 µM)
- binding result [3]: binds
- binding result [4]: binds
B1: PepSP1462 labeled with biotin (peptide)
peptide: Ac-AETVEFWWCNGNSENWTCTWGG-{Ttds-K(PEG4-DBCO)-NH2}
modifications: disulfide 9-18 (inferred); also: biotin label, site of attachment not given here
notes: also called PepSP1462-biotin peptide; labeled PepSP1462 peptide

- Kd [5]: 43 nM
- Kd [6]: 42.5 nM
- RT (residence time) [6]: 87.8 s
Binder: AETVEFWDCWGNTDDWTCTW-NH2 (disulfide 9-18 (inferred)) [PepSP1161]

- RT [1]: 199
Binder: Ac-AETVEFWWCNGNSENWTCTWGG-{Ttds-K(Ttds-Ttds)-NH2} (disulfide 9-18 (inferred), also called PspSP1342) [PepSP1342]

- RT [1]: 369
Binder: Ac-AETVEFWGCTGTWGNETCWWGG-{Ttds-Lys-NH2} (disulfide 9-18 (inferred)) [PepSP1321]
